Test results from the Immune Epitope Database (IEDB).

How the values were obtained:
Assay in all cases: IEDB peptide-MHC binding, purified MHC/direct/fluorescence; filed as Kd, often an IC50 or EC50 that approximates it; ≥ and ≤ were set here for values at or beyond the usual limits of such assays
HLA-B*73:01 = details: source organism: Bacillus anthracis
HLA-A*02:01 = target: HLA-A*02:01
HLA-A*02:06 = details: source organism: Cryptosporidium parvum Iowa II
HLA-A*02:12 = target: HLA-A*02:12
HLA-A*03:01 = target: HLA-A*03:01
HLA-A*26:01 = target: HLA-A*26:01
HLA-B*15:17 = target: HLA-B*15:17
HLA-B*27:03 = target: HLA-B*27:03
HLA-B*46:01 = target: HLA-B*46:01
HLA-B*51:01 = target: HLA-B*51:01
HLA-B*57:01 = target: HLA-B*57:01
HLA-A*02:03 = details: source organism: Bacillus cereus H3081.97
HLA-A*02:11 = details: source organism: Bacillus cereus H3081.97
HLA-A*02:16 = details: source organism: Bacillus cereus H3081.97
HLA-A*02:19 = details: source organism: Bacillus cereus H3081.97
HLA-A*29:02 = details: source organism: Bacillus cereus H3081.97
HLA-B*15:01 = details: source organism: Bacillus cereus H3081.97
HLA-B*18:01 = details: source organism: Bacillus cereus H3081.97
HLA-B*39:01 = details: source organism: Bacillus cereus H3081.97
[1] = source organism: Cryptosporidium parvum Iowa II
[2] = source organism: Bacillus cereus H3081.97

FQANMFLTL
Kd (HLA-B*73:01): ≥ 20 µM

KQMSQPYAV
Kd (HLA-A*02:01; [1]): 0.002 µM
Kd (HLA-A*02:06): ≤ 0.001 µM
Kd (HLA-A*02:12; [1]): ≤ 0.001 µM
Kd (HLA-A*03:01; [1]): ≥ 20 µM
Kd (HLA-A*26:01; [1]): ≥ 20 µM
Kd (HLA-B*15:17; [1]): ≥ 20 µM
Kd (HLA-B*27:03; [1]): ≥ 20 µM
Kd (HLA-B*46:01; [1]): ≥ 20 µM
Kd (HLA-B*51:01; [1]): ≥ 20 µM
Kd (HLA-B*57:01; [1]): ≥ 20 µM

YSTVRDLFL
Kd (HLA-A*02:01; [2]): ≥ 20 µM
Kd (HLA-A*02:03): ≥ 20 µM
Kd (HLA-A*02:11): ≥ 20 µM
Kd (HLA-A*02:12; [2]): ≥ 20 µM
Kd (HLA-A*02:16): ≥ 20 µM
Kd (HLA-A*02:19): ≥ 20 µM
Kd (HLA-A*03:01; [2]): ≥ 20 µM
Kd (HLA-A*26:01; [2]): ≥ 20 µM
Kd (HLA-A*29:02): ≥ 20 µM
Kd (HLA-B*15:01): ≥ 20 µM
Kd (HLA-B*15:17; [2]): ≤ 0.001 µM
Kd (HLA-B*18:01): ≥ 20 µM
Kd (HLA-B*27:03; [2]): ≥ 20 µM
Kd (HLA-B*39:01): ≥ 20 µM
Kd (HLA-B*46:01; [2]): ≥ 20 µM
Kd (HLA-B*51:01; [2]): ≥ 20 µM
Kd (HLA-B*57:01; [2]): ≥ 20 µM
